How the values were obtained:
[1] = molecular target: CLDN18.2 (antigen of the ka/kd/KD measurement, species and form not stated); assay: affinity measurement, method not described
[2] = molecular target: CLDN18.2 (antigen of the ka/kd/KD measurement, species and form not stated); assay: affinity measurement, method not described (Table 2-2)

In the case of IMAB362 (antibody), the Kd [1] is reported as 4.17 nM and the Kd [2] is reported as 4.17 nM.
